According to the supplement of paper PMC9112550, “Optimization of the antimicrobial peptide Bac7 by deep mutational scanning” (BMC Biology, 2022):

Tested on: Escherichia coli TOP10
Experiment: shrunken log2 fold change of peptide-encoding DNA abundance (4.5 h post-induction vs induction); higher = less antimicrobial activity (less host growth inhibition)
Settings: time post-induction: 4.5 h; library: site-saturation at positions 5, 18, 19, 20
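Further: peptides expressed intracellularly from a pBAD plasmid library in pooled LB shake-flask culture, induced with 0.3% L-arabinose, DNA abundance read by NGS, three biological replicates, DESeq2 with apeglm shrinkage.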

RRIRHRPPRLPRPRPRPHLLPRP
shrunken log2 fold change: -0.286

RRIRHRPPRLPRPRPRPHMNPRP
shrunken log2 fold change: -0.491

RRIRHRPPRLPRPRPRPHMPPRP
shrunken log2 fold change: -0.358

RRIRHRPPRLPRPRPRPHNEPRP
shrunken log2 fold change: -0.458

RRIRHRPPRLPRPRPRPHNTPRP
shrunken log2 fold change: -0.709

RRIRHRPPRLPRPRPRPHPFPRP
shrunken log2 fold change: -0.3

RRIRHRPPRLPRPRPRPHPSPRP
shrunken log2 fold change: 0.0305

RRIRHRPPRLPRPRPRPHQEPRP
shrunken log2 fold change: -0.0212

RRIRHRPPRLPRPRPRPHQHPRP
shrunken log2 fold change: -0.526

RRIRHRPPRLPRPRPRPHSLPRP
shrunken log2 fold change: -0.00992

RRIRHRPPRLPRPRPRPHTIPRP
shrunken log2 fold change: -0.0571

RRIRHRPPRLPRPRPRPHVFPRP
shrunken log2 fold change: -0.0684

RRIRHRPPRLPRPRPRPHVIPRP
shrunken log2 fold change: -0.302

RRIRHRPPRLPRPRPRPHVRPRP
shrunken log2 fold change: -0.0157

RRIRHRPPRLPRPRPRPHWFPRP
shrunken log2 fold change: -0.198

RRIRHRPPRLPRPRPRPHYRPRP
shrunken log2 fold change: -0.0219

RRIRHRPPRLPRPRPRPIAHPRP
shrunken log2 fold change: 0.0481

RRIRHRPPRLPRPRPRPICRPRP
shrunken log2 fold change: 0.0125

RRIRHRPPRLPRPRPRPIEAPRP
shrunken log2 fold change: -0.131

RRIRHRPPRLPRPRPRPIELPRP
shrunken log2 fold change: -0.0301

RRIRHRPPRLPRPRPRPIEMPRP
shrunken log2 fold change: -0.00281

RRIRHRPPRLPRPRPRPIFCPRP
shrunken log2 fold change: -0.184

RRIRHRPPRLPRPRPRPIGKPRP
shrunken log2 fold change: 0.0218

RRIRHRPPRLPRPRPRPIHDPRP
shrunken log2 fold change: -1.81

RRIRHRPPRLPRPRPRPIHRPRP
shrunken log2 fold change: -0.147

RRIRHRPPRLPRPRPRPIHSPRP
shrunken log2 fold change: 0.0202

RRIRHRPPRLPRPRPRPIIYPRP
shrunken log2 fold change: -0.295

RRIRHRPPRLPRPRPRPIKSPRP
shrunken log2 fold change: -0.0206

RRIRHRPPRLPRPRPRPILFPRP
shrunken log2 fold change: -0.148

RRIRHRPPRLPRPRPRPIMNPRP
shrunken log2 fold change: -1.05

RRIRHRPPRLPRPRPRPIMPPRP
shrunken log2 fold change: -0.74

RRIRHRPPRLPRPRPRPINVPRP
shrunken log2 fold change: -1.14

RRIRHRPPRLPRPRPRPIPEPRP
shrunken log2 fold change: -0.16

RRIRHRPPRLPRPRPRPIPGPRP
shrunken log2 fold change: -0.158

RRIRHRPPRLPRPRPRPIPKPRP
shrunken log2 fold change: -0.0389

RRIRHRPPRLPRPRPRPIPSPRP
shrunken log2 fold change: -0.274

RRIRHRPPRLPRPRPRPIRVPRP
shrunken log2 fold change: -0.361

RRIRHRPPRLPRPRPRPIRWPRP
shrunken log2 fold change: 0.171

RRIRHRPPRLPRPRPRPISAPRP
shrunken log2 fold change: -0.0622

RRIRHRPPRLPRPRPRPISNPRP
shrunken log2 fold change: -0.779

RRIRHRPPRLPRPRPRPITRPRP
shrunken log2 fold change: -0.0356

RRIRHRPPRLPRPRPRPITTPRP
shrunken log2 fold change: -0.0193

RRIRHRPPRLPRPRPRPIVDPRP
shrunken log2 fold change: 0.0237

RRIRHRPPRLPRPRPRPIVKPRP
shrunken log2 fold change: -0.19

RRIRHRPPRLPRPRPRPIVNPRP
shrunken log2 fold change: 0.114

RRIRHRPPRLPRPRPRPIWHPRP
shrunken log2 fold change: -0.327

RRIRHRPPRLPRPRPRPIWLPRP
shrunken log2 fold change: -0.00879

RRIRHRPPRLPRPRPRPIYNPRP
shrunken log2 fold change: -0.898

RRIRHRPPRLPRPRPRPIYRPRP
shrunken log2 fold change: -0.111

RRIRHRPPRLPRPRPRPKACPRP
shrunken log2 fold change: -0.01

RRIRHRPPRLPRPRPRPKAFPRP
shrunken log2 fold change: 0.0173

RRIRHRPPRLPRPRPRPKCSPRP
shrunken log2 fold change: -0.0294

RRIRHRPPRLPRPRPRPKDLPRP
shrunken log2 fold change: -0.0584

RRIRHRPPRLPRPRPRPKDPPRP
shrunken log2 fold change: 0.0476

RRIRHRPPRLPRPRPRPKFAPRP
shrunken log2 fold change: 0.00298

RRIRHRPPRLPRPRPRPKHGPRP
shrunken log2 fold change: 0.109

RRIRHRPPRLPRPRPRPKHHPRP
shrunken log2 fold change: -0.493

RRIRHRPPRLPRPRPRPKHNPRP
shrunken log2 fold change: 0.196

RRIRHRPPRLPRPRPRPKICPRP
shrunken log2 fold change: 0.0596

RRIRHRPPRLPRPRPRPKISPRP
shrunken log2 fold change: -0.395

RRIRHRPPRLPRPRPRPKKHPRP
shrunken log2 fold change: -0.324

RRIRHRPPRLPRPRPRPKLTPRP
shrunken log2 fold change: -0.0624

RRIRHRPPRLPRPRPRPKMQPRP
shrunken log2 fold change: -0.121

RRIRHRPPRLPRPRPRPKPYPRP
shrunken log2 fold change: -0.277

RRIRHRPPRLPRPRPRPKRRPRP
shrunken log2 fold change: 0.116

RRIRHRPPRLPRPRPRPKSAPRP
shrunken log2 fold change: -0.0502

RRIRHRPPRLPRPRPRPKSIPRP
shrunken log2 fold change: -0.136

RRIRHRPPRLPRPRPRPKSPPRP
shrunken log2 fold change: -0.0893

RRIRHRPPRLPRPRPRPKSWPRP
shrunken log2 fold change: 0.26

RRIRHRPPRLPRPRPRPKWCPRP
shrunken log2 fold change: -0.142

RRIRHRPPRLPRPRPRPKWSPRP
shrunken log2 fold change: 0.0617

RRIRHRPPRLPRPRPRPKWYPRP
shrunken log2 fold change: -0.462

RRIRHRPPRLPRPRPRPKYSPRP
shrunken log2 fold change: -0.489

RRIRHRPPRLPRPRPRPLAKPRP
shrunken log2 fold change: 0.107

RRIRHRPPRLPRPRPRPLDKPRP
shrunken log2 fold change: -0.0374

RRIRHRPPRLPRPRPRPLDNPRP
shrunken log2 fold change: -0.515

RRIRHRPPRLPRPRPRPLENPRP
shrunken log2 fold change: 0.00854

RRIRHRPPRLPRPRPRPLFHPRP
shrunken log2 fold change: -0.462

RRIRHRPPRLPRPRPRPLFWPRP
shrunken log2 fold change: 0.274

RRIRHRPPRLPRPRPRPLGKPRP
shrunken log2 fold change: -0.239

RRIRHRPPRLPRPRPRPLGLPRP
shrunken log2 fold change: 0.393

RRIRHRPPRLPRPRPRPLICPRP
shrunken log2 fold change: -0.493

RRIRHRPPRLPRPRPRPLLAPRP
shrunken log2 fold change: 0.299

RRIRHRPPRLPRPRPRPLLVPRP
shrunken log2 fold change: -0.167

RRIRHRPPRLPRPRPRPLMAPRP
shrunken log2 fold change: -0.206

RRIRHRPPRLPRPRPRPLNYPRP
shrunken log2 fold change: -0.289

RRIRHRPPRLPRPRPRPLPTPRP
shrunken log2 fold change: 0.245

RRIRHRPPRLPRPRPRPLPVPRP
shrunken log2 fold change: 0.125

RRIRHRPPRLPRPRPRPLQIPRP
shrunken log2 fold change: 0.0781

RRIRHRPPRLPRPRPRPLQKPRP
shrunken log2 fold change: 0.104

RRIRHRPPRLPRPRPRPLRNPRP
shrunken log2 fold change: -0.0741

RRIRHRPPRLPRPRPRPLSAPRP
shrunken log2 fold change: 0.242

RRIRHRPPRLPRPRPRPLTHPRP
shrunken log2 fold change: -1.14

RRIRHRPPRLPRPRPRPLYMPRP
shrunken log2 fold change: -0.00599

RRIRHRPPRLPRPRPRPMAYPRP
shrunken log2 fold change: -0.0524

RRIRHRPPRLPRPRPRPMCEPRP
shrunken log2 fold change: -0.293

RRIRHRPPRLPRPRPRPMCGPRP
shrunken log2 fold change: -0.181

RRIRHRPPRLPRPRPRPMDEPRP
shrunken log2 fold change: -0.204

RRIRHRPPRLPRPRPRPMDMPRP
shrunken log2 fold change: 0.0881

RRIRHRPPRLPRPRPRPMESPRP
shrunken log2 fold change: 0.00489

RRIRHRPPRLPRPRPRPMFWPRP
shrunken log2 fold change: 0.0114

RRIRHRPPRLPRPRPRPMGLPRP
shrunken log2 fold change: 0.00622

RRIRHRPPRLPRPRPRPMHFPRP
shrunken log2 fold change: -0.0161

RRIRHRPPRLPRPRPRPMISPRP
shrunken log2 fold change: -0.442

RRIRHRPPRLPRPRPRPMKKPRP
shrunken log2 fold change: -0.0202

RRIRHRPPRLPRPRPRPMLHPRP
shrunken log2 fold change: 0.195

RRIRHRPPRLPRPRPRPMLIPRP
shrunken log2 fold change: -0.824

RRIRHRPPRLPRPRPRPMNIPRP
shrunken log2 fold change: -0.214

RRIRHRPPRLPRPRPRPMPRPRP
shrunken log2 fold change: 0.069

RRIRHRPPRLPRPRPRPMPSPRP
shrunken log2 fold change: 0.0183

RRIRHRPPRLPRPRPRPMQKPRP
shrunken log2 fold change: -0.0124

RRIRHRPPRLPRPRPRPMRTPRP
shrunken log2 fold change: -0.11

RRIRHRPPRLPRPRPRPMSEPRP
shrunken log2 fold change: 0.0594

RRIRHRPPRLPRPRPRPMSIPRP
shrunken log2 fold change: -0.0719

RRIRHRPPRLPRPRPRPMTQPRP
shrunken log2 fold change: -0.24

RRIRHRPPRLPRPRPRPMVWPRP
shrunken log2 fold change: 0.0787

RRIRHRPPRLPRPRPRPNALPRP
shrunken log2 fold change: 0.0224

RRIRHRPPRLPRPRPRPNCCPRP
shrunken log2 fold change: 0.0161

RRIRHRPPRLPRPRPRPNCYPRP
shrunken log2 fold change: -0.0056

RRIRHRPPRLPRPRPRPNFTPRP
shrunken log2 fold change: -0.104

RRIRHRPPRLPRPRPRPNGSPRP
shrunken log2 fold change: -0.0827

RRIRHRPPRLPRPRPRPNHFPRP
shrunken log2 fold change: -0.262

RRIRHRPPRLPRPRPRPNHSPRP
shrunken log2 fold change: -0.785

RRIRHRPPRLPRPRPRPNIIPRP
shrunken log2 fold change: -0.307

RRIRHRPPRLPRPRPRPNMHPRP
shrunken log2 fold change: 1.05

RRIRHRPPRLPRPRPRPNQLPRP
shrunken log2 fold change: -0.154

RRIRHRPPRLPRPRPRPNQQPRP
shrunken log2 fold change: -0.0412

RRIRHRPPRLPRPRPRPNQTPRP
shrunken log2 fold change: -0.0854

RRIRHRPPRLPRPRPRPNQVPRP
shrunken log2 fold change: 0.0339

RRIRHRPPRLPRPRPRPNRHPRP
shrunken log2 fold change: -0.281

RRIRHRPPRLPRPRPRPNTAPRP
shrunken log2 fold change: -0.246

RRIRHRPPRLPRPRPRPNTLPRP
shrunken log2 fold change: -0.0867

RRIRHRPPRLPRPRPRPNVCPRP
shrunken log2 fold change: -0.0562

RRIRHRPPRLPRPRPRPNVHPRP
shrunken log2 fold change: -0.113

RRIRHRPPRLPRPRPRPNYPPRP
shrunken log2 fold change: -0.32

RRIRHRPPRLPRPRPRPPAEPRP
shrunken log2 fold change: 0.0536

RRIRHRPPRLPRPRPRPPAGPRP
shrunken log2 fold change: 0.344

RRIRHRPPRLPRPRPRPPCEPRP
shrunken log2 fold change: 0.00703

RRIRHRPPRLPRPRPRPPCMPRP
shrunken log2 fold change: -0.245

RRIRHRPPRLPRPRPRPPDEPRP
shrunken log2 fold change: 0.43

RRIRHRPPRLPRPRPRPPEDPRP
shrunken log2 fold change: 0.314

RRIRHRPPRLPRPRPRPPFAPRP
shrunken log2 fold change: 0.564

RRIRHRPPRLPRPRPRPPIAPRP
shrunken log2 fold change: -0.0868

RRIRHRPPRLPRPRPRPPIWPRP
shrunken log2 fold change: 0.324

RRIRHRPPRLPRPRPRPPKHPRP
shrunken log2 fold change: 0.2

RRIRHRPPRLPRPRPRPPKNPRP
shrunken log2 fold change: -0.0129

RRIRHRPPRLPRPRPRPPLEPRP
shrunken log2 fold change: 0.223

RRIRHRPPRLPRPRPRPPLTPRP
shrunken log2 fold change: 0.162

RRIRHRPPRLPRPRPRPPMAPRP
shrunken log2 fold change: 0.197

RRIRHRPPRLPRPRPRPPPPPRP
shrunken log2 fold change: 1.05
